# Measured values as given in the Immune Epitope Database (IEDB).
# What was measured:
# [1] = molecular target: HLA-A*03:19; assay: IEDB peptide-MHC binding, purified MHC/competitive/fluorescence; filed as Kd, often an IC50 or EC50 that approximates it; ≥ and ≤ were set here for values at or beyond the usual limits of such assays; conditions: source organism: Shigella boydii CDC 3083-94
# [2] = molecular target: HLA-B*27:03; assay: as above; conditions: source organism: Shigella boydii CDC 3083-94
# [3] = molecular target: HLA-A*02:01; assay: as above; conditions: source organism: Shigella boydii CDC 3083-94
# [4] = molecular target: HLA-A*02:19; assay: as above; conditions: source organism: Shigella boydii CDC 3083-94
# [5] = molecular target: HLA-B*18:01; assay: as above; conditions: source organism: Shigella boydii CDC 3083-94
# [6] = molecular target: HLA-A*32:07; assay: as above; conditions: source organism: Shigella boydii CDC 3083-94
# [7] = molecular target: HLA-C*14:02; assay: as above
# [8] = molecular target: HLA-A*29:02; assay: as above; conditions: source organism: Shigella boydii CDC 3083-94
# [9] = molecular target: HLA-A*32:15; assay: as above; conditions: source organism: Shigella boydii CDC 3083-94
# [10] = molecular target: HLA-B*83:01; assay: as above
# [11] = molecular target: HLA-B*51:01; assay: as above
# [12] = molecular target: HLA-B*40:13; assay: as above; conditions: source organism: Shigella boydii CDC 3083-94
# [13] = molecular target: HLA-B*15:42; assay: as above
# [14] = molecular target: HLA-B*27:20; assay: as above; conditions: source organism: Shigella boydii CDC 3083-94
# [15] = molecular target: HLA-A*26:01; assay: as above; conditions: source organism: Shigella boydii CDC 3083-94
# [16] = molecular target: HLA-B*45:06; assay: as above
# [17] = molecular target: HLA-B*57:01; assay: as above; conditions: source organism: Shigella boydii CDC 3083-94
# [18] = molecular target: HLA-C*06:02; assay: IEDB peptide-MHC binding, purified MHC/direct/fluorescence; filed as Kd, often an IC50 or EC50 that approximates it; ≥ and ≤ were set here for values at or beyond the usual limits of such assays; conditions: source organism: Shigella boydii CDC 3083-94
# [19] = molecular target: HLA-B*08:01; assay: IEDB peptide-MHC binding, purified MHC/competitive/fluorescence; filed as Kd, often an IC50 or EC50 that approximates it; ≥ and ≤ were set here for values at or beyond the usual limits of such assays; conditions: source organism: Giardia lamblia ATCC 50803
# [20] = molecular target: HLA-A*01:01; assay: as above; conditions: source organism: Giardia lamblia ATCC 50803
# [21] = molecular target: HLA-B*27:05; assay: as above; conditions: source organism: Giardia lamblia ATCC 50803
# [22] = molecular target: HLA-B*58:01; assay: as above; conditions: source organism: Giardia lamblia ATCC 50803
# [23] = molecular target: HLA-B*53:01; assay: as above; conditions: source organism: Giardia lamblia ATCC 50803
# [24] = molecular target: HLA-B*44:02; assay: as above; conditions: source organism: Giardia lamblia ATCC 50803
# [25] = molecular target: HLA-B*14:02; assay: as above; conditions: source organism: Giardia lamblia ATCC 50803
# [26] = molecular target: HLA-A*30:02; assay: as above; conditions: source organism: Giardia lamblia ATCC 50803
# [27] = molecular target: HLA-B*07:02; assay: as above; conditions: source organism: Giardia lamblia ATCC 50803
# [28] = molecular target: HLA-A*11:01; assay: as above; conditions: source organism: Giardia lamblia ATCC 50803
# [29] = molecular target: HLA-A*68:23; assay: as above; conditions: source organism: Giardia lamblia ATCC 50803
# [30] = molecular target: HLA-B*40:01; assay: as above; conditions: source organism: Giardia lamblia ATCC 50803
# [31] = molecular target: HLA-B*27:03; assay: IEDB peptide-MHC binding, purified MHC/direct/fluorescence; filed as Kd, often an IC50 or EC50 that approximates it; ≥ and ≤ were set here for values at or beyond the usual limits of such assays; conditions: source organism: Giardia lamblia ATCC 50803
# [32] = molecular target: HLA-B*18:01; assay: as above; conditions: source organism: Giardia lamblia ATCC 50803
# [33] = molecular target: HLA-A*29:02; assay: as above; conditions: source organism: Giardia lamblia ATCC 50803
# [34] = molecular target: HLA-A*23:01; assay: as above; conditions: source organism: Giardia lamblia ATCC 50803
# [35] = molecular target: HLA-A*03:01; assay: as above; conditions: source organism: Giardia lamblia ATCC 50803
# [36] = molecular target: HLA-A*24:03; assay: as above; conditions: source organism: Giardia lamblia ATCC 50803
# [37] = molecular target: HLA-A*66:01; assay: as above; conditions: source organism: Giardia lamblia ATCC 50803
# [38] = molecular target: HLA-C*12:03; assay: as above; conditions: source organism: Giardia lamblia ATCC 50803
# [39] = molecular target: HLA-C*05:01; assay: as above; conditions: source organism: Giardia lamblia ATCC 50803
# [40] = molecular target: HLA-A*68:02; assay: as above; conditions: source organism: Giardia lamblia ATCC 50803
# [41] = molecular target: HLA-B*57:01; assay: as above; conditions: source organism: Giardia lamblia ATCC 50803
# [42] = molecular target: HLA-B*14:02; assay: as above; conditions: source organism: Homo sapiens
# [43] = source organism: Shigella boydii CDC 3083-94
# [44] = source organism: Giardia lamblia ATCC 50803
sequence,measurement,setting,value
GMMRWCMPV,Kd,[1],1.13 µM
same,Kd,[2],≥ 20 µM
same,Kd,[3],≤ 0.0001 µM
same,Kd,[4],0.0002 µM
same,Kd,[5],≥ 20 µM
same,Kd,[6],0.0052 µM
same,Kd,[7]; [43],0.0936 µM
same,Kd,[8],0.0515 µM
same,Kd,[9],0.813 µM
same,Kd,[10]; [43],≥ 5 µM
same,Kd,[11]; [43],≥ 20 µM
same,Kd,[12],0.201 µM
same,Kd,[13]; [43],16.9 µM
same,Kd,[14],0.0004 µM
same,Kd,[15],≥ 20 µM
same,Kd,[16]; [43],0.0692 µM
same,Kd,[17],≥ 20 µM
same,Kd,[18],≥ 20 µM
MTYLDGHPV,Kd,[19],≥ 5 µM
same,Kd,[20],≥ 5 µM
same,Kd,[21],≥ 5 µM
same,Kd,[22],≥ 5 µM
same,Kd,[23],≥ 5 µM
same,Kd,[24],≥ 5 µM
same,Kd,[7]; [44],0.0303 µM
same,Kd,[10]; [44],≥ 5 µM
same,Kd,[11]; [44],≥ 5 µM
same,Kd,[25],≥ 5 µM
same,Kd,[26],≥ 5 µM
same,Kd,[27],≥ 5 µM
same,Kd,[28],0.138 µM
same,Kd,[13]; [44],≥ 5 µM
same,Kd,[29],≤ 0.0001 µM
same,Kd,[30],≥ 5 µM
same,Kd,[16]; [44],≥ 5 µM
same,Kd,[31],≥ 20 µM
same,Kd,[32],≥ 20 µM
same,Kd,[33],0.006 µM
same,Kd,[34],≥ 20 µM
same,Kd,[35],≥ 20 µM
same,Kd,[36],≥ 20 µM
same,Kd,[37],0.134 µM
same,Kd,[38],0.153 µM
same,Kd,[39],≥ 20 µM
same,Kd,[40],≤ 0.001 µM
same,Kd,[41],≥ 20 µM
NEVLHQEL,Kd,[42],0.294 µM
